According to the DeepSol protein solubility set:

Assay: soluble on expression in E. coli; label from the status in PepcDB or PDB records

| Sequence | soluble on expression in E. coli |
| --- | --- |
| MAHHHHHHMLRRVTCMAASVGRAAAALSVSPVMAQIPSAMRPPSKASTSAVASLLPPCCQPIYQQRRCYASRSGEEKGNADKGTQAAAAAVSTTPGTATAEAVRYFAANEQNADAAARAQGSVKQQEQLSAAAANGGDAATSGIRTIGIKLTEDDELVRAFNNFSKSVNGCTQEEFLIGAKQAYYSLAVVISAFLEHGQPLAGRTESTKMIAAAHEAAKLLDKEFKPESRCDAAATSLASKAEGDGTDDSSSSSSKTKLQESLVRNVVSTIVSLIPVSRHLAESIFKIWLLHKVKQVNLSSIASPADYVLDSKLVIFARLGKARMYFNSDNVGAEVDVTFSNDYLRKLDPASVAGSGAAGSSQMADAAGKVDEDDFDTGMIQVHTDTDANAHRTTAEEHTFVVNKATRTLTPTGSTAASTAAAAAAASTDAARRSGGNSASAGAGGASAADSAKSSGTASRIQVTCVKTTDFLRKSASAATVAATAVRDEAAAKTAAPNESSGEEEEEAHSVYIKVNGNMLPPIPASAHACALLTVDVVVPPERYAYNFEWFYKRIVGYENEYERIAAARVFASNSPKPLASFLDFFMRMVTGKPVEFMFSKAIGRMIGIPDDVSQTPPATRKLMCMYMDQSYKWVLADLVTLAPVMETKLPKA | not soluble |
| MNILQFNVRLAEGGAAGVALDLHQRALQQGLASHFVYGYGKGGKESVSHQNYPQVIKHTPRMTAMANIALFRLFNRDLFGNFNELYRTITRTAGPVVLHFHVLHSYWLNLKSVVRFCEKVKNHKPDVTLVWTLHDHWSVTGRCAFTDGCEGWKTGCQKCPTLNNYPPVKIDRAHQLVAGKRQLFREMLALGCQFISPSQHVADAFNSLYGPGRCRIINNGIDMATEAILADLPPVRETQGKPKIAVVAHDLRYDGKTNQQLVREMMALGDKIELHTFGKFSPFTAGNVVNHGFETDKRKLMSALNQMDALVFSSRVDNYPLILCEALSIGVPVIATHSDAAREVLQKSGGKTVSEEEVLQLVQLSKPEIAQAIFGTTLAEFSQRSRAAYSGQQMLEEYVNFYQNL | soluble |
| MGSDKIHHHHHHMTIDTNFSKWFLQPSKESAQMYETVMQRALTLVVEHMKEAANPFSGADRHSIQQAVKDAAFISYSGEPIDGVIRAIQEGVMKHSLWISHPSAMAHLHCPPLLPSLVAEVVINALNQSMDSWDQSPSATYVETELLRFFTRSIGYSDLGDGVFTSGGTQSNYMGMLLARNKICESAFATNVQEEGLPVDARKLRILCSQEAHFSVQKSAAQLGLGANAVVQVATNERQQLCVNETRQTINELRLKGLIPFMIVATAGTTDFGSIDKLREIAELAREQELWLHVDAAYGGALLFSRQYGHLLNGLHLADSITIDFHKFYYQSISCGAFFVKDRHEFERIRFHADYLNPEEDKEADIINLVEKSVQTTKRFDALKLLVTFKWMGTEQFGQMIDYTIQLAKETGELLRRYGFDVLNDPELNAVVFRYVPECHRDDQSYVDQLNLTLQRHFYERGDLIMAKTKQRGHVYLKFTMLNPLNTIENMKTQIQKVKKAGIEFEKTQGAIRHEHVIHS | not soluble |
| MGHHHHHHSHMLNSTGELEFSNEEDPEIISQLTSLPLSGGKSSAGVPEKTGYPDSVYVMAANIFQGIRIEKSAQKVLIKYGNEPLRSLSESEDQSFQRLSYELAFSALKYQDILETILIDSCIFPSTTTPDHLSSLIIVMLYDFQDRKFQTRVLSDNEEPISEVQEVENLLNSFKIKLAAALARCRIKHDALSIYHILPETVRKQELRASTLPLYAWINTCKISPEEVYNNLKRRGYNKVKSVLHIDDKVFAVDQHCYDVLIFPSHLKNDLINIDLFKDYKLIFQVN | not soluble |
| VVVTDMGILAKRSVDGSLDIFVQSLSQGLPIANAKVDVVGRNGLSVAEGFTDLGGHVHLPKLGQLRREKRPLFYRVEKAGDVSFLPIGDWRRELDMSRFDIGGSNESEDPNTLSAYLFTDRGLYRPGETAHVASLVRSQSWGASLDGLPVKMVVTDPRGIDVLDRTFNLDSSGFNSLDFSSTEAAVAGEYTASLSLIRDKHNLTRLGEESFKVRDFEPDRIKVRVTLGATESGTSIGWLKPEEVSAKVQAEQLFGGPAGDRRVTGEMVLSPTDISFKELPGYYFGVQGE | not soluble |
| MFCFLQLPYHPNSSVHISTIDRITNSGRLYQYYSAEMTAEVIDFTKRNLEEAMNHNERRLLFRRSRSEPMTLTNENITMTSRTDPEWNMTVDSISIQSSFAEYQHRRKERLKKQEAHKTSEISLSSGPSELAMKGHTDFDAAIEFLDNKMPSTLSLTDSDNSHSSNDITSSQAKEISYEDEMRLFIEKTGHLVTNVFADPFDSDERKSRTEMWVEASTENLAEGGTTSDDVPTEKELELDMENNDILAESVVGTGTGELNDEKDEETVPVGLIPPVARQSTEDSILSSNVTVNSLLKSKLTINLKEASEALSEIDIADVDRFWDYLYEKDDIQKFSDELIYPIKMEIPSTSSSERSIGIALSPIKLDFAGIHVQKTGKIEKHIKMNSNEEKDRELDEPLEITDQTVETRFFELETTKNLEKINRGTTTSEHGNILIKTTASQTPVSQEVVQLVNYEPINFTKAQSDRNFDEKENMIRAFSFKLSESFYKDLKILVVERDRAKEAMDILPAKTMKELSEECNYYQTRYRVRIEQNKEKLDRRIEEVWKKLLKMPIESQEVIDFISVAHSELLTLNARRNLPDNM | not soluble |
| MLDNVLRIATRQSPLALWQAHYVKDKLMASHPGLVVELVPMVTRGDVILDTPLAKVGGKGLFVKELEVALLENRADIAVHSMKDVPVEFPQGLGLVTICEREDPRDAFVSNNYDSLDALPAGSIVGTSSLRRQCQLAERRPDLIIRSLRGNVGTRLSKLDNGEYDAIILAVAGLKRLGLESRIRAALPPEISLPAVGQGAVGIECRLDDSRTRELLAALNHHETALRVTAERAMNTRLEGGCQVPIGSYAELIDGEIWLRALVGAPDGSQIIRGERRGAPQDAEQMGISLAEELLNNGAREILAEVYNGDAPA | soluble |
| MAWYEGAFFYQIFPDRFFRAGPPGRPAPAGPFEPWEAPPTLRGFKGGTLWGVAEKLPYLLDLGVEAIYLNPVFASTANHRYHTVDYFQVDPILGGNEALRHLLEVAHAHGVRVILDGVFNHTGRGFFAFQHLMENGEQSPYRDWYHVKGFPLKAYTAHPNYEAWWGNPELPKLKVETPAVREYLLAVAEHWIRFGVDGWRLDVPNEIPDPTFWREFRQRVKGANPEAYIVGEIWEEADFWLQGDMFDAVMNYPLARAVLGFVGGEALDRDLAAQTGLGRIEPLQALAFSHRLEDLFGRYRPEVVRAQMNLLTSHDTPRLLSLMRGSVERARLALALLFLLPGNPTVYYGEEVGMAGGKDPENRGGMVWEEARWQKDLRETVKRLARLRKEHPALRTAPYLRIYAQDGHLAFARGPYLAVVNASPHPFRQDFPLHGVFPRGGRAVDLLSGEVCTPQGGRLCGPVLPPFSLALWREA | soluble |
| MGSDKIHHHHHHMSILEVRGIEKTYSGKRILKAVSFDLESGKLTVLGGLNGIGKSTLIKMMSGDIRPDSGEIVFDGHHVELRSIVEARRIGLSAVYQEYMLVPDLTVAENIFLGSGKFTISRKKMNSEASRLLSKFGLSFDPSSKVSSLSSDEQALLEFAAAVFSEPKVLMIDDLFSVLQTESRKRLLQMIEVIKNKGTAVLVVTTDPDLMLMADHLLFMDESGVEYLPCPIERGAILERMGASSDFSILPAEGELLIEISNLAGSGQDLSLKRGEVLNIFCESGELVRAFTRAMIRQDPFTDNSVPLFREAKSFFDRFSSRSSSTPAEKYFCSNLKNTGLVSQVMLKKSGSFKSSKSLKKSFILNKESVVSVKSFLAGLERIPGFSGLVSEEDKKLSQLRFDACDLYVFVRPLLGLDPVSVNALSTVLQEIVNRSKAAVIISDEAGSSMLSTRKMRSSE | not soluble |
| GSHMTIEQMVDRLLSYPERTKMQILAPIVSGKKGTHAKTLEDIRKQGYVRVRIDREMRELTGDIELEKNKKHSIDVVVDRIIIKDGIAARLADSLETALKLADGKVVVDVIGEGELLFS | soluble |
| MTKKVGVGQAHSKIILIGEHAVVYGYPAISLPLLEVEVTCKVVSAESPWRLYEEDTLSMAVYASLEYLDITEACVRCEIDSAIPEKRGMGSSAAISIAAIRAVFDYYQADLPHDVLEILVNRAEMIAHMNPSGLDAKTCLSDQPIRFIKNVGFTELEMDLSAYLVIADTGVYGHTREAIQVVQNKGKDALPFLHALGELTQQAEVAISQKYAEGLGLIFSQAHLHLKEIGVSSPEADFLVETALSYGALGAKMSGGGLGGCIIALVTNLTHAQELAERLEEKGAVQTWIESL | not soluble |
| MRPDAVMIFAAGFGTRMGALTATRPKPMIEVAGRPLIDHALALAEAAGISRIVANTHYLPESLTAHLAGRALVSHEEEILETGGGLCRALPLLGEGPVYTLNSDAVWTGENPLDELAAGWREGMEALLLLAPSGCAPGDFTMDAAGRLARARGAPGYTYLGAQILRTDRLAGVAEAKFSLNLVWDAMIAAGTAHGLIHRGGWCDVGRPEGIAAAEAMLANVLEHHHHHH | not soluble |
| MHVFDNNGIELKAECSIGEEDGVYGLILESWGPGDRNKDYNIALDYIIERLVDSGVSQVVVYLASSSVRKHMHSLDERKIHPGEYFTLIGNSPRDIRLKMCGYQAYFSRTGRKEIPSGNRTKRILINVPGIYSDSFWASIIRGELSELSQPTDDESLLNMRVSKLIKKTLSQPEGSRKPVEVERLQKVYVRDPMVKAWILQQSKGICENCGKNAPFYLNDGNPYLEVHHVIPLSSGGADTTDNCVALCPNCHRELHYSKNAKELIEMLYVNINRLQKLEHHHHHH | soluble |
| MSLQSADESTFDRIRRTKKLRIGAVAGGAPYYNKDLATGQWKGFYIDISKALADELECQLEITETTWGNSVLDLQANKIDIFFGLNPTPKRALVVDFSVPVFSNAFTMLTRKDFAPKTWAELNDPNVKIAVDVGSSHDQVVSRLCPKAQIVRLKTADEATMALVSGRVDAQCIILMLALTVRKKNPNVGQLLVPTPVFSTTSNAGFRRENDKTWRDYVNTWIEYNKGLGFIRSAIVTNMELVGVTEADMPAGIQEGHHHHHH | soluble |
| GPGSMWFGTKNQRKAPQIPFPKRNKTKQRRASRRVRARVRTGNKPEHAIGGTGCASSRMRRGLDGSNTAAPGCDVSSHLSTPVHRPLRCAQPLFVFKSTSLRASLRNTCHHARHRARPYAHGSVSPPLSPSLAYFPQRSKGSRTPAYRWDCTVTRRSWSAHGSASTLVCARVRRSAPFTIGRANDRQRSAAEGDDARTPAHLTTLSTRSQQPKQAKQNTGSSMNSAGTGAPAKAAGVSASSLSMPKHKLVLLGDQSVGKTSIITRFMYDTFDQQYQPTIGIDFFSKTVHLDDDRDVRLHLWDTAGQERFHSLIPSYIRNSAATVVVYDITSRPTFFSAFKWIDEVRSESGADVVIMLVGNKVDQASERREVSAEEAMKKASECSVLFMEVSAKHGTNIKHMFRQVAAALPAPASTGGGAGVTGATSSSAGGVGAAGASGSGASAPGISAGQFGGIVRSPFLITPSAMQAASNGTGGAGEADGANPNAQGGRGGACC | not soluble |
| MSLKYVDEFREPEKAEALCREITKLSHQLEKPIKIMEVCGGHTHSIFKYGIEEILPQTIELIHGPGCPVCVMPKGRLDDAIAISQNHNVIFATFGDAMRVPGSKTSLLQARAQGADIRMVYSPLDSLQIAKDHPDREVVFFALGFETTAPSTGFTIVQAAAEEIHNFSMFSNHVLVIPALKALLDNPDLQLDGFVGPGHVSMVIGSDPYQFISQQYNKPIVVSGFEPLDILQSIWMLLQQIVENRCEVENQYNRIVQKSGNTVALQAINKVFAVRDSFDWRGLGDIPYSGLKIKPEYAQFDAELKFTIPNLKVADHKACKCGEILKGVLKPWECKVFGTACTPETPIGTCMVSSEGACAAYYKYGRLSTIAKRTITQKPKITQEPLPACGFSLDEGHHHHHH | not soluble |
| MPMKEFPGLFLWKMWSLDKKKENMLKTHDPGISRLEPVTKTKPWREPLWERNWQGQHLDSRGYLAGPGREDGRNPLKLFVRATLQESLQFHRPDFISHIWERIKRLKLIVQERKLQSMLKSERDALFDIDRERQGHQNRMRPLPKRVFLAVQKNKPISKKEMIQRSKRTHAGGTVAQRLPGALWVKERLPGKGEKHPGIPVTSGSSTQTM | not soluble |
